Assay results: patent US10415067B2, “Method for the enzymatic production of D-erythrose and acetyl phosphate” (SCIENTIST OF FORTUNE S.A., priority 2014, dated 2019)

Key:
[1] = molecular target: T1, Bifidobacterium pseudolongum subsp. globosum phosphoketolase, Uniprot Q6R2Q6, SEQ ID NO: 1 (Bifidobacterium pseudolongum, UniProt Q6R2Q6); assay: Kinetics of acetyl phosphate formation from D-fructose (hydroxamate-based colorimetric assay); assay type: biochemical; settings: D-fructose 0-500 mM, 50 mM sodium phosphate, pH 7.5, 37° C., 3 mg/ml enzyme
T1 sequence (Q6R2Q6 1-825): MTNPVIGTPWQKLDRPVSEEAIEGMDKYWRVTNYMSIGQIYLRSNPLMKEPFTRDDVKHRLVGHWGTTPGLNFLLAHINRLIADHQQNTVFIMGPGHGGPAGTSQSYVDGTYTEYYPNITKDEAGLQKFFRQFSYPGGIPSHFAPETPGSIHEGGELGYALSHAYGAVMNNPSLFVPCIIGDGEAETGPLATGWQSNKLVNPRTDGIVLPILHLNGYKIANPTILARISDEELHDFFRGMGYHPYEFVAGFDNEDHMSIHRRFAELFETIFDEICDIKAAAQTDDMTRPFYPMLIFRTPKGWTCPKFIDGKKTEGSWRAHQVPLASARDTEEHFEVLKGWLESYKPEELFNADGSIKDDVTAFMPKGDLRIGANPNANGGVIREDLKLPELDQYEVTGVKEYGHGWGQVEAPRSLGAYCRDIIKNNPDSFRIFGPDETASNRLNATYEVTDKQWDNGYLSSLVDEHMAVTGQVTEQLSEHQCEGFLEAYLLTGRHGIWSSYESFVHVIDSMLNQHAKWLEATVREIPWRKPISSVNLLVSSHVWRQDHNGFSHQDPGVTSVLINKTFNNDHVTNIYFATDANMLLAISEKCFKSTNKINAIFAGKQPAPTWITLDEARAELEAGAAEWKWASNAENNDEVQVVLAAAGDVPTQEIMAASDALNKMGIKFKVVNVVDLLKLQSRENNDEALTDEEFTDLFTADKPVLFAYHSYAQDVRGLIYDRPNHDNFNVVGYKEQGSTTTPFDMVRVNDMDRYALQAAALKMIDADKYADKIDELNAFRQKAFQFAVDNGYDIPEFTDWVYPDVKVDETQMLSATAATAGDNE
Description: (§1) The sequences of phosphoketolases inferred from the genomes of prokaryotic organisms were generated by oligonucleotide concatenation to fit the codon usage of E. coli (genes were commercially synthesized by GeneArt®). A stretch of 6 histidine codons was inserted after the methionine initiation codon to provide an affinity tag for purification. The genes thus synthesized were cloned in a modified pUC18 expression vector (New England Biolabs) containing a modified Multiple Cloning Sites (MCS). The genes of interest were cloned at PacI and NotI restriction sites. Competent MG1655 E. coli cells were transformed with these vectors using standard heat shock procedure. The transformed cells were grown in LB-ampicillin medium for 24 h at 30° C., 160 rpm shaking.
(§2) The pellets from 200 ml of cultured cells were thawed on ice and resuspended in 3 ml of 50 mM Tris-HCl pH 7.5 containing 300 mM NaCl, 5 mM MgCl2, 1 mM DTT and 10 mM Imidazole. 10 μl of lysonase (Merck) was added. […] Protein concentrations were quantified by direct UV 280 nm measurement on the NanoDrop 1000 spectrophotometer (Thermo Scientific). […]
(§3) The composition of enzymatic reactions was identical to that described above. Kinetic parameters were determined using a range of D-fructose concentrations (0-500 mM) and a constant concentration of sodium phosphate (50 mM). […]

[2] = molecular target: Lactococcus lactis subsp. lactis (strain KF147) phosphoketolase, Uniprot A9QST6, SEQ ID NO: 3 (Lactococcus lactis, UniProt Q9CFH4); assay: as above; assay type: biochemical; settings: D-fructose 0-500 mM, 50 mM sodium phosphate, pH 7.5, 37° C., 3 mg/ml enzyme
Description: as §1, §2, §3

[3] = substrate: O=CCO; assay: Kinetics of acetyl phosphate formation from glycolaldehyde (hydroxamate-based colorimetric assay); assay type: biochemical, Lactococcus lactis subsp. lactis (strain KF147); settings: other: glycolaldehyde 0-100 mM, 50 mM sodium phosphate, pH 7.5, 37° C., 3 mg/ml enzyme
Description: as §1, §2
(§4) 0.1 ml of hydroxylamine hydrochloride (2 M, pH 6.5) was added to 0.1 ml of reaction mixture. […] The samples were further clarified by centrifugation and the absorbance of ferric acetyl-hydroxamate complex was measured at 505 nm. […]

[4] = substrate: O=CCO; assay: as above; assay type: biochemical, Clostridium acetobutylicum (strain ATCC 824); settings: other: glycolaldehyde 0-100 mM, 50 mM sodium phosphate, pH 7.5, 37° C., 3 mg/ml enzyme
Description: as §1, §2, §4

[5] = substrate: O=CCO; assay: as above; assay type: biochemical, Bifidobacterium pseudolongum subsp. globosum; settings: other: glycolaldehyde 0-100 mM, 50 mM sodium phosphate, pH 7.5, 37° C., 3 mg/ml enzyme
Description: as §1, §2, §4

## OCC1(O)OC[C@@H](O)[C@@H](O)[C@@H]1O (stereo partly drawn) [D-fructose]
[1]
  kcat: 0.10 ± 0.02 s⁻¹
[2]
  kcat: 0.11 ± 0.04 s⁻¹

B1: Lactococcus lactis subsp. lactis (strain KF147) phosphoketolase, Uniprot A9QST6, SEQ ID NO: 3 (Lactococcus lactis subsp. lactis Il1403) (protein)
chain: MTEYNSEAYLKKLDKWWRAATYLGAGMIFLKENPLFSVTGTPIKAENLKANPIGHWGTVSGQTFLYAHANRLINKYNQKMFYMGGPGHGGQAMVVPSYLDGSYTEAYPEITQDLEGMSRLFKRFSFPGGIGSHMTAQTPGSLHEGGELGYVLSHATGAILDQPEQIAFAVVGDGEAETGPLMTSWHSIKFINPKNDGAILPILDLNGFKISNPTLFARTSDVDIRKFFEGLGYSPRYIENDDIHDYMAYHKLAAEVFDKAIEDIHQIQKDAREDNRYQNGEIPAWPIVIARLPKGWGGPRYNDWSGPKFDGKGMPIEHSFRAHQVPLPLSSKNMGTLPEFVKWMTSYQPETLFNADGSLKEELRDFAPKGEMRMASNPVTNGGVDYSNLVLPDWQEFANPISENNRGKLLPDTNDNMDMNVLSKYFAEIVKLNPTRFRLFGPDETMSNRFWEMFKVTNRQWMQVIKNPNDEFISPEGRIIDSQLSEHQAEGWLEGYTLTGRTGVFASYESFLRVVDSMLTQHFKWIRQAADQKWRHDYPSLNVISTSTVFQQDHNGYTHQDPGMLTHLAEKKSDFIRQYLPADGNTLLAVFDRAFQDRSKINHIVASKQPRQQWFTKEEAEKLATDGIATIDWASTAKDGEAVDLVFASAGAEPTIETLAALHLVNEVFPQAKFRYVNVVELGRLQKKKGALNQERELSDEEFEKYFGPSGTPVIFGFHGYEDLIESIFYQRGHDGLIVHGYREDGDITTTYDMRVYSELDRFHQAIDAMQVLYVNRKVNQGLAKAFIDRMERTLVKHFEVTRNEGVDIPEFTEWVWSDLKK
[3]
  Km: ≈25 mM mM
  kcat: 0.05 s⁻¹

B2: Clostridium acetobutylicum (strain ATCC 824) phosphoketolase, Uniprot Q97JE3, SEQ ID NO: 2 (Clostridium acetobutylicum ATCC 824) (protein)
chain: MQSIIGKHKDEGKITPEYLKKIDAYWRAANFISVGQLYLLDNPLLREPLKPEHLKRKVVGHWGTIPGQNFIYAHLNRVIKKYDLDMIYVSGPGHGGQVMVSNSYLDGTYSEVYPNVSRDLNGLKKLCKQFSFPGGISSHMAPETPGSINEGGELGYSLAHSFGAVFDNPDLITACVVGDGEAETGPLATSWQANKFLNPVTDGAVLPILHLNGYKISNPTVLSRIPKDELEKFFEGNGWKPYFVEGEDPETMHKLMAETLDIVTEEILNIQKNARENNDCSRPKWPMIVLRTPKGWTGPKFVDGVPNEGSFRAHQVPLAVDRYHTENLDQLEEWLKSYKPEELFDENYRLIPELEELTPKGNKRMAANLHANGGLLLRELRTPDFRDYAVDVPTPGSTVKQDMIELGKYVRDVVKLNEDTRNFRIFGPDETMSNRLWAVFEGTKRQWLSEIKEPNDEFLSNDGRIVDSMLSEHLCEGWLEGYLLTGRHGFFASYEAFLRIVDSMITQHGKWLKVTSQLPWRKDIASLNLIATSNVWQQDHNGYTHQDPGLLGHIVDKKPEIVRAYLPADANTLLAVFDKCLHTKHKINLLVTSKHPRQQWLTMDQAVKHVEQGISIWDWASNDKGQEPDVVIASCGDTPTLEALAAVTILHEHLPELKVRFVNVVDMMKLLPENEHPHGLSDKDYNALFTTDKPVIFAFHGFAHLINQLTYHRENRNLHVHGYMEEGTITTPFDMRVQNKLDRFNLVKDVVENLPQLGNRGAHLVQLMNDKLVEHNQYIREVGEDLPEITNWQWHV
[4]
  Km: ≈30 mM mM
  kcat: 0.08 s⁻¹

B3: Bifidobacterium pseudolongum subsp. globosum phosphoketolase, Uniprot Q6R2Q6, SEQ ID NO: 1 (Bifidobacterium pseudolongum subsp. globosum) (protein)
chain: MTNPVIGTPWQKLDRPVSEEAIEGMDKYWRVTNYMSIGQIYLRSNPLMKEPFTRDDVKHRLVGHWGTTPGLNFLLAHINRLIADHQQNTVFIMGPGHGGPAGTSQSYVDGTYTEYYPNITKDEAGLQKFFRQFSYPGGIPSHFAPETPGSIHEGGELGYALSHAYGAVMNNPSLFVPCIIGDGEAETGPLATGWQSNKLVNPRTDGIVLPILHLNGYKIANPTILARISDEELHDFFRGMGYHPYEFVAGFDNEDHMSIHRRFAELFETIFDEICDIKAAAQTDDMTRPFYPMLIFRTPKGWTCPKFIDGKKTEGSWRAHQVPLASARDTEEHFEVLKGWLESYKPEELFNADGSIKDDVTAFMPKGDLRIGANPNANGGVIREDLKLPELDQYEVTGVKEYGHGWGQVEAPRSLGAYCRDIIKNNPDSFRIFGPDETASNRLNATYEVTDKQWDNGYLSSLVDEHMAVTGQVTEQLSEHQCEGFLEAYLLTGRHGIWSSYESFVHVIDSMLNQHAKWLEATVREIPWRKPISSVNLLVSSHVWRQDHNGFSHQDPGVTSVLINKTFNNDHVTNIYFATDANMLLAISEKCFKSTNKINAIFAGKQPAPTWITLDEARAELEAGAAEWKWASNAENNDEVQVVLAAAGDVPTQEIMAASDALNKMGIKFKVVNVVDLLKLQSRENNDEALTDEEFTDLFTADKPVLFAYHSYAQDVRGLIYDRPNHDNFNVVGYKEQGSTTTPFDMVRVNDMDRYALQAAALKMIDADKYADKIDELNAFRQKAFQFAVDNGYDIPEFTDWVYPDVKVDETQMLSATAATAGDNE
[5]
  Km: ≈20 mM mM
  kcat: 0.07 s⁻¹
